According to article PMC2894858 (PLoS ONE, 2010):
Non-standard residues stand in square brackets, D forms with d. No end group written: not given here. Aib = CC(C)(N)C(=O)O

Target: botulinum neurotoxin serotype A light chain (Clostridium botulinum, UniProt P0DPI1 1-420)
Assay: HPLC-based protease inhibition assay (Dixon plots)
Conditions: both partners purified

botulinum neurotoxin serotype A light chain, sequence (P0DPI1 1-420): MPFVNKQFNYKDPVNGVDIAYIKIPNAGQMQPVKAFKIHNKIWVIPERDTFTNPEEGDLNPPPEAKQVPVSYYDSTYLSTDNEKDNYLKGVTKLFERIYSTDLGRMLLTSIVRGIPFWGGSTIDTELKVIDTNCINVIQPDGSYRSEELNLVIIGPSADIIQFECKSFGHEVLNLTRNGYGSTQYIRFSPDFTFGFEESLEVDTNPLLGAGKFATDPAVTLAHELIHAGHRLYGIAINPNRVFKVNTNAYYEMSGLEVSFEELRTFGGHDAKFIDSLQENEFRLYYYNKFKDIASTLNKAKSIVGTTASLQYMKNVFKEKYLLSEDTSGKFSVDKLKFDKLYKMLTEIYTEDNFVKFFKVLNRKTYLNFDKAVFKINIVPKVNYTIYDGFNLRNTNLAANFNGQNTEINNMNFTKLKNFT

Binder	Ki
RRW[Aib]AML-NH2 (not fully specified) [JTH-NB72-38]	990 nM
RRF[Aib]AML-NH2 [JTH-NB72-39]	638 nM
